What was measured:
Rat aortic SMCs [1] = assay: qRT-PCR of fibronectin and collagen I in SMC; assay type: cell-based; conditions: 500 nM, 24 h; PBS control set equal to 1; average of duplicates ± range
Procedure: mRNA was isolated from RASMs 24 hours after incubation with 500 nM pUR4 or III-11C control peptides using RNAzol as per the manufacturer's instructions (Invitrogen). cDNA was prepared using a Superscript First Strand cDNA kit as per the manufacturer's instructions (Invitrogen). Mouse carotid arteries were harvested and frozen in liquid nitrogen. RNA was isolated using Trizol and purified using a QIAgen RNeasy Micro Kit. RNA integrity was examined with an Agilent 2100 Bioanalyser using RNA6000 NanoAssay (Agilent Technology). Whole transcriptome amplification was performed using Qiagen's QuantiTect Whole Transcriptome Amplification Kit. Quantitative RT-PCR analyses were performed using ABI Prism 7900HT sequence detection system (Applied Biosystems). The qRT-PCR primers for 3 mouse genes were obtained from ABI: GADPH (4352932E), fibronectin (Mm01256744_m1), and collagen Ia1 (Mm00801666_g1). TaqMan probe chemistry was used according to the manufacturer's instructions. qRT-PCR reactions were run in triplicate for each sample. The data was normalized to the levels of GAPDH in each sample, and the results were averaged.

Rat aortic SMCs [2] = assay: Fibronectin and collagen I deposition in cultured SMCs (immunostaining); assay type: cell-based; conditions: 500 nM peptide, 3 days, serum containing media
Procedure: FIGS. 1A-1I depict the effect of pUR4 on fibronectin and collagen I deposition in smooth muscle cells (SMCs). Rat aortic SMCs were grown in serum containing media in the absence (FIGS. 1A-1C) or presence of 500 nM pUR4 (FIGS. 1D-1F) or control III-11C (FIGS. 1G-1I) peptides for 3 days. Cell were fixed, and then incubated with a polyclonal antibody to fibronectin (FIGS. 1A, 1D, and 1G) or collagen I (FIGS. 1B, 1E, and 1H). Bar, 20 μm.
Rat aortic smooth muscle cells (RASM) were obtained from Cell Applications (San Diego, Calif.) and maintained in serum containing media (Cell Applications). SMC were used at passages 4-6.
Previous data has shown that fibronectin regulates the deposition of other proteins into the ECM, including type I collagen (Sottile et al., “Fibronectin Polymerization Regulates the Composition and Stability of Extracellular Matrix Fibrils and Cell-Matrix Adhesions,” Mol. Biol. Cell. 13:3546-3559 (2002), which is hereby incorporated by reference in its entirety). […] However, there was a trend toward decreased fibronectin and collagen I mRNA in the carotid artery of animals treated with pUR4 in comparison with control peptide-treated animals (Table 3).

[3] = system: left carotid artery of FVB mice; assay: Carotid ligation flow-induced vascular remodeling, morphometry; assay type: in vivo, mouse
Procedure: Both sexes of FVB transgenic mice were used for the carotid ligation experiments, since no significant differences in their modeling response were reported between male and female mice. All procedures were approved by the University of Rochester Animal Care Committee, and were performed in accordance with the guidelines of the National Institutes of Health for the care and use of laboratory animals.
Digital images of Verhoeff-van Gieson elastic stained cross-sections were captured and morphometric analysis was performed using Image-Pro Plus software (Media Cybernetics, Md.). The circumferences of the lumen, internal elastic lamina (IEL) and external elastic lamina (EEL) in the sections were identified using the automatic trace mode in Image-Pro. The accuracy of the automated tracing was verified by visual inspection of the images. Cross-sectional areas of the lumen, neointima, media, adventitia, and the area encompassed by the EEL were measured. Vessel compartment volumes were calculated as described (Intengan et al., “Vascular Remodeling in Hypertension: Roles of Apoptosis, Inflammation, and Fibrosis,” Hypertension 38:581-587 (2001), which is hereby incorporated by reference in its entirety). Briefly, starting with the carotid bifurcation as the origin, a series of cross-sections of 5 μm were cut every 200 μm through the first mm length of the carotid artery. Morphometric analysis was performed at each point, and the average of each division was calculated, summed, and reported as the volume.
Blood flow in the left carotid artery of 10-week-old FVB/NJ (FVB) mice was reduced by ligating the external and internal carotid arterial branches as described (Korshunov et al., “Flow-Induced Vascular Remodeling in the Mouse: A Model for Carotid Intima-Media Thickening,” Arterioscler. Thromb. Vasc. Biol. 23:2185-2191 (2003), which is hereby incorporated by reference in its entirety). Mice were anesthetized with an intraperitoneal injection of ketamine (80 mg/kg) and xylazine (5 mg/kg) as described in the above-cited referenced. The left common carotid artery was dissected free of the surrounding connective tissue and 50 μL of F-127 pluronic gel (BASF) containing 20 μmol/L pUR4 or III-11C was applied around the carotid artery. Animals were separated into 5 groups containing 5 to 10 animals each: (1) sham-operated, in which the branches of the left carotid artery were exposed and dissected out, but not ligated; (2) ligation; (3) ligation with pluronic gel; (4) ligation with pluronic gel containing III-11C; (5) ligation with pluronic gel containing pUR4.
Blood flow in the left and right common carotid artery was measured using an ultrasonic transit-time volume flowmeter (Transonic Systems) before sacrifice. Animals were perfusion-fixed with 10% formalin 7 or 14 days after surgery. The common carotid arteries were harvested and embedded in paraffin. Cross-sections of 5 μm were cut from the bifurcation every 200 μm through the first mm length of the carotid artery as described (Korshunov et al., “Flow-Induced Vascular Remodeling in the Mouse: a Model for Carotid Intima-Media Thickening,” Arterioscler. Thromb. Vasc. Biol. 23:2185-2191 (2003), which is hereby incorporated by reference in its entirety). Sections were stained with Verhoeff-van Gieson elastic stain, and then subjected to morphometric analysis. […]

[4] = vessel compartments analyzed separately

B1: pUR4: 49-mer peptide derived from the bacterial F1 adhesin, His tagged, SEQ ID NO:1; class I fibronectin polymerization inhibitor (peptide)
chain: MRGSHHHHHHGSKDQSPLAGESGETEYITEVYGNQQNPVDIDKKLPNETGFSGNMVETEDTKLN
modifications: His tag; Bacterial adhesin derived peptide pUR4
Col Ia1 mRNA, relative level (Rat aortic SMCs [1]): 1.42 ± 0.06 | Fibronectin mRNA, relative level (Rat aortic SMCs [1]): 1.43 ± 0.02 | deposition of endogenous collagen I into matrix fibrils (Rat aortic SMCs [2]): inhibited | deposition of endogenous fibronectin into the ECM (Rat aortic SMCs [2]): inhibited | increase in lumen volume after ligation ([3]; 20 μmol/L in pluronic gel, periadventitial): prevented | carotid (vascular) remodeling ([3]; 20 μmol/L in pluronic gel, periadventitial, 14 days after ligation): dramatically reduced | effect on IMT at 7 days ([3]; 7 days after ligation): no statistical effect | inhibition of adventitial thickening compared to III-11C ([3]; 14 days after ligation): 38% | reduction of extent of IMT (intima-media thickening) vs control peptide ([3]; 14 days after ligation): 40% | remodeling index, pUR4 vs III-11C ([3]; mouse, in vivo): not different | outward remodeling (EEL volume) ([3]; no difference in EEL volume vs shams 7 days post ligation): prevented | reduction of intima thickening [3, 4]: 63% | reduction of media thickening [3, 4]: 27%

Reference: US9364516B2, “Treatment of fibrosis-related disorders using fibronectin binding proteins and polypeptides” (priority 2010, dated 2016)
